Results taken from article doi:10.1101/2020.09.09.273011.

Experiments:
[1] = target: ΔEGF/Lam_Celsr3 (Celsr3-Flag lacking all the EGF repeats and Laminin domains) (mouse) (UniProt Q91ZI0); test: co-IP
[2] = target: ΔLaminin G1_Celsr3 (Celsr3-Flag lacking the Laminin G1 domain) (mouse) (UniProt Q91ZI0); test: co-IP

B1: mouse Frizzled3 (Frizzled3-HA) (receptor)
chain: HSLFSCEPITLRMCQDLPYNTTFMPNLLNHYDQQTAALAMEPFHPMVNLDCSRDFRPFLCALYAPICMEYGRVTLPCRRLCQRAYSECSKLMEMFGVPWPEDMECSRFPDCDEPYPRLVDLNLVGDPTEGAPVAVQRDYGFWCPRELKIDPDLGYSFLHVRDCSPPCPNMYFRREELSFARYFIGLISIICLSATLFTFLTFLIDVTRFRYPERPIIFYAVCYMMVSLIFFIGFLLEDRVACNASSPAQYKASTVTQGSHNKACTMLFMVLYFFTMAGSVWWVILTITWFLAAVPKWGSEAIEKKALLFHASAWGIPGTLTIILLAMNKIEGDNISGVCFVGLYDVDALRYFVLAPLCLYVVVGVSLLLAGIISLNRVRIEIPLEKENQDKLVKFMIRIGVFSILYLVPLLVVIGCYFYEQAYRGIWETTWIQERCREYHIPCPYQVTQMSRPDLILFLMKYLMALIVGIPSIFWVGSKKTCFEWASFFHGRRKKEIVNESRQVLQEPDFAQSLLRDPNTPIIRKSRGTSTQGTSTHASSTQLAMVDDQRSKAGSVHSKVSSYHGSLHRSRDGRYTPCSYRGMEERLPHGSMSRLTDHSRHSSSHRLNEQSRHSSIRDLSNNPMTHITHGTSMNRVIEEDGTSA
B1 was tested. Which percent reduction of the interaction against wild type Celsr3 [1] did it give?
The percent reduction of the interaction against wild type Celsr3 was 68%.

What about the percent reduction of the interaction against wild type Celsr3 [2] of the same binder?
Its percent reduction of the interaction against wild type Celsr3 is 66%.
